assay: yeast display, Sf9 membrane polyspecificity reagent, FACS + sequencing; frameworks hold sequencing errors
In short: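 Using colony PCR, genes from sorted yeast display clones were amplified, then sequenced on MiSeq at 2 × 250 and filtered by CDR length. The clones had been stained with 10% biotinylated, detergent-solubilized Sf9 membrane reagent for 1 hour at 4 °C and sorted by FACS into low and high (top ~1%) gates on anti-HA and streptavidin fluorescence. Polyreactivity labels come from the gate of origin.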

Sequence	polyreactivity (PSR sort gate)
KVQLVESGGGLVQAGGSLRLSCAASGSISANYAMGWYRQAPGKERELVAAISRRGASTYYADSVKGRFTISRDNAKNTVYLQMNSLKPEDTAVYYCNAKKYHVPGVDYWGQGTQVTVSS	high polyreactivity
QDQLVESGGGLVQAGGSLRLSCAASGSIFDVNAMGWYRQAPGKERELVAAISDSGGSTYYADSVKGRFTISRDNAKNTVYLQMNSLKPEDTAVYYCNADWSWYNYYDFDYWGQGTQVTVSS	low polyreactivity
QVQLVESGGGLVQAGGSLRLSCAASGSISTPYTMGWYRQAPGKERELVADISWIGDTTSYADSVKGRFTISRDNAKNTVYLLMNSLKPEDTAVYYCNAEHRGYEYWGQGTQVTVSS	low polyreactivity
QVQLVESGGGLVQAGGSLRLSCAASGSIFPLYAMGWSRQAPGKERELVAAITWRGGSTYYADSVKGRFTITRDNAKNTVYLQMNSLKPEDTAVYYCNRDLVPRFDYWGQGTQVTVSS	low polyreactivity
QVQLVESGGGLVQAGGSLRLSCAASGSTFAPNTMGWYRQAPGKERELVARITSSDGSTTYADSVKGRFTISRDNAKNTVYLQMNSLKPEDTAVYYCAADYGRRWGYDYWGQGTQVTVSS	low polyreactivity
QVQLVESGGGLVQAGGSLRLSCAASGSIFGGYDMGWYRQAPGKESELVASISGSSSTYYADSVKGRFTISRDNAKNTVYFQMNSLKPEDTAVYYCAVDYHQAWPSADYWFEYDYWGQGTQVTVSS	low polyreactivity
QVHLVESGGGLVQAGGSLRLSCAASGGTFLVNAMGWYRQAPGKERELVAAINWSGGGTTYADSVKGRFTISRDNAKNTVYLQMNSLKPEDTAVYYCATGSYTTYGYGYWGQGTQVTVSS	high polyreactivity
QVQLVESGGGLVQAGGSLRLSCAASGSIFAYYVMGWYRQAPGKERELVAAISRSGGRTYYADSVKGRFTISRDNAKNTVYLQMNSLKPEETAVYYCNSELYSRPPGAQDPRLRFDYWGQGTQVTVSS	high polyreactivity
QVQHVESGGRLVQAGGSLRLSCAASGSIFGRYVMGWYRQAPGKESELVAAISGSGGSTNYADSVKGRFTISRDNAKNTVYLQMNSLKPEDTAVYYCATLRWFWYTRSTRIGDYWGQGTQVTVSS	high polyreactivity
QVQLVESGGGLVQAGGSLRLSCAASGSIFGAYAMGWYRQAPGKERELVATITLRDGSTYYADSVKGRFTISRDNAKNTVYLQMNSLKPEDTAVSYCATYYSAINYGWSKTILYDYWGQGTQVTVSS	low polyreactivity
QVQLVESGGGLVQAGGSLRLSCAASGSTFGSNAMGWSRQAPGKERELVAAITYSGGRTYYADSVQGRFTISRDNAKNTVYLQMNSLKPEDPAVYYCAATFGFFYYQYDYWGQGTQVTVSS	low polyreactivity
QVQLVESGGGLVQAGGSLRLSCAASGIIFYRYALGWYRQAPRTERELVAAISSSGTNTYYADSVKGRFTISRDNAKNTVYLQMNSLKPEDTAVYYCNADTLADRSTYDYWGQGTQVNVSS	low polyreactivity
QVQLVESGGGLVQAGGSLRLSCAASGSTFQFYAMGWYRQAPGKERELVASITSRGGNTHYADSVKGRFTISRDNAKNTVYLQMNSLKPEDTAVYYCAARGGWYGTYDYWGQGTQVTVSS	low polyreactivity
QVQLVESGGGLVQAGGSLRLSCAASGGTFEPNAMGWYRQPPGKEREFVAAITWNGGRTNYADSVKGRFTISRDNAKNTVYLQMNSLKPEDTAVYYCAARSYTDYNYWGQGTQVTVSS	high polyreactivity
QVQLVESGGGLVQAGGSLLLSCAASGRIFYGNAMGWYRQAPGKERELVAPISSGTSTNYADSVKGRFTISRDNGKNTVYLQMNSLKPEDTAVYYCAAGSYSRYLYSLYFDFDYWGQGTQVTVSS	low polyreactivity
QVQVVESGGGLVQAGGSLRLSCAPSGRIFTIYVMGWYRQAPGKERELVATITYSSGSTTYADSVKGRFTISRDNAKNTVYLQMNSLKPEDTAVYYCAKKYYTGYGYWGQGTQVTVSS	low polyreactivity

Sequence	polyreactivity (PSR sort gate)
QVQLVESGGGLVQAGGSLRIRCAASGSIFWYNAMGWYRQAPGKERELVAAISYRGGSTYYADSVKGRFTISRDNAKNTVYLQMNSLKPEDTAVYYCAAEYGDVYVWTYDYWGQGTQVTVSS	high polyreactivity
QVQLVESGGGLVQAGGSLRLTCAASGRIFRRNAMGGYRQAPGKEREMVATITSGSSTNYADSVKGRFTISRDNAKNTVYLQMHSLKPEDTAVYYCAKLPWKYRVGYYRNQQTYDYWGQGTQVTVSS	high polyreactivity
QVQLVESGGGLVQAGGSLRLSCAASGRTLSGYAMGWYRQAPGKERELVAAISRRGGRTYYADSVKGRFTISRDNAKNTVYLQMNSLKPEDTAVYYCAAQVYTKTGDWQFYYWGQGTQVTVSS	high polyreactivity
QVQLVESGGGLVQAGGSLRLSCAASGFTIYRYAMGWYRQAPGKERELVAAISSIGGSTYYADSVKGRFTISRDNSKNTVYLQMNSLKPEDTAVYYCAAAISLYSYDYWGQGTQVTVSS	low polyreactivity
QVQLVESGGGLDQARGSLRLSCAASGSTLAVYAIGWYRQAPGKEREFVAAISWSGVSTYYADSVKGRFTISLDNAKNTVYLQMNSLKPEDTAVYDCAAKRVRALYGGSEGGYWGQGTQVTVSS	low polyreactivity
QVQLQESGGGLVQAGGSLRLICAASGTIFSARFMGWYRQAPGKERELVATITDGGNTNHADSVKGRFTISRDNAKNTVYLKMYSLKPEDAAVYYCAAGEVDNDTLLFWGQGSQVTVSS	low polyreactivity
QVQLVESGGGLVQAGGSLRLSCAASGSIFGISTMGWYRQAPGKERELVAAITSGDRTSYADSVKGRFTISRDNAKNTVYLQMNTLKPEDTAVYYCARDYYSYRYLRYDYWGQGTQVTVSS	low polyreactivity
QVQLVESGGGLVQAGGSLRLSCAASGFTFQDYAMGWYRQAPGKERELVASISNGGSTYYADSVKGRFTISRDNAKNTVYLQMNSLKPEDTAVYYCAKPYDPGPYHSSYRATDDYWGQGTQVTVSS	low polyreactivity
QVQLVESGGGLVQAGGSLRLSCAASGFTFSTYAMGWYRQAPGKERELVAAISRSGGSTYYADSVKGRFTISRDNAKNTVYLQMNSLKPEDTAVYYCAADGLRRESSYYYWGQGTQVTVSS	high polyreactivity
QVQLVESAGGLVQAGGSLRLSCAASGSTLSWNTMGWYRQAPGKERELVARINWGGSSTYYADSVKGRFTISRDNAKNTVYLQMNSLKPEDTAVFYCNARYLSSAYDYWGQGTQVTVSS	high polyreactivity
QVQLVESGGGLVQAGGSLRLSCAASGFIFYAYAMGWDRQAPGKERELVAAISRGGGSTYYADSVKGRFTISRDNAKNTVYLQMNSLKPEDTAVYYCAADFYYDRDVDFWGQGTQVTVSS	high polyreactivity
QVQLVESGGGLVQAGGSLRLSCAASGGTFPYNAMGWYRQAPGKERELVAVITSGDGTYYADSVKGRFTISRDNAKNTVYLQMNSLKPEDTAVYYCAADYVVWFSFVYVVEYDYWGQGTQVTVSS	low polyreactivity
QVQLVESGGGLVQAGGSLRISCGASGSTFAQNVMGWDRQAPGKERELVAAITSSGSTNYADSVKGRFTISRDNAKNTVYLQMNSLKPEDSAVYYCAKDVLAPYSRHDYWGQGTQVTVSS	low polyreactivity
QVQLVESGGGLVQAGGSLRLSCAASGRTFGWYAMGWYRQAPGKEREFVAVISRSGTNTYYADSVKGRFTISRDNAKNTVYLQMNSLKPEDTAVYYCAAVRSSQSYYYWGQGTQVTVSS	high polyreactivity
QVQHVESGGGLVQAAGSLRLSCAASGTIFYWYTMGWYRQARGKERELVATITGSGSSTTYADSVKGRFTISRDNAKNSVYLQMNSLKPEDTAVYYCAKVYYIGIRGEYDYWGQGTQVTVSA	low polyreactivity
QDQHVETGGGLVQAGGSLRLSCAASGSIFFLYMGWYRKAHGKETELVATISSGGSTNYADSVMGRFTISRDNAKHTVYLQMNSLKPVATAVYYFNARGSERLDTYSLYDYWGQGTQVTVSS	low polyreactivity

Reference: the nanobody polyreactivity screen of Harvey et al. (2022)
